Reference: patent publication US20050142582

System: USF1 (upstream stimulatory factor) (Ciona intestinalis)
Assay: SPR
Conditions: binding good, dimer

USF1 (upstream stimulatory factor) (Ciona intestinalis), sequence (chain, as listed by the source): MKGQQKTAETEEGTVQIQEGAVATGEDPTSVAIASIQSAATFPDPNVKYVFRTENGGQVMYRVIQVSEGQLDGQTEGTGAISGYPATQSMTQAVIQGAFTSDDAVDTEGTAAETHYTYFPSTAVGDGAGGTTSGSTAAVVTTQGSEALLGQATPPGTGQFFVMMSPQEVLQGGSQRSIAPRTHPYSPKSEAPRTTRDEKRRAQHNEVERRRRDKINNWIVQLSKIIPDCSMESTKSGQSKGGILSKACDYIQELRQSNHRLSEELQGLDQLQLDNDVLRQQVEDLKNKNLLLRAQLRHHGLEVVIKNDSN

Row | Sequence | Kd [nM]
1 | GGTATTGAGGGTCGCATCGGCTTCAGGTTGGTCTGGTTGGGTTTGGCTCCTGTGTACGGATGGCTCTAACTCTCCTCT [6H5] | 176
2 | GGTATTGAGGGTCGCATCGGCAAAAAGGATTGCCCAGGTCTGCTGTCTAGCCGGATTCGATGGCTCTAACTCTCCTCT [6H1] | 36
